In IntAct's records for PubMed 23663663:

B1: E3 ubiquitin-protein ligase CBL-B (Homo sapiens), Q13191 (parent)
chain: MANSMNGRNPGGRGGNPRKGRILGIIDAIQDAVGPPKQAAADRRTVEKTWKLMDKVVRLCQNPKLQLKNSPPYILDILPDTYQHLRLILSKYDDNQKLAQLSENEYFKIYIDSLMKKSKRAIRLFKEGKERMYEEQSQDRRNLTKLSLIFSHMLAEIKAIFPNGQFQGDNFRITKADAAEFWRKFFGDKTIVPWKVFRQCLHEVHQISSGLEAMALKSTIDLTCNDYISVFEFDIFTRLFQPWGSILRNWNFLAVTHPGYMAFLTYDEVKARLQKYSTKPGSYIFRLSCTRLGQWAIGYVTGDGNILQTIPHNKPLFQALIDGSREGFYLYPDGRSYNPDLTGLCEPTPHDHIKVTQEQYELYCEMGSTFQLCKICAENDKDVKIEPCGHLMCTSCLTAWQESDGQGCPFCRCEIKGTEPIIVDPFDPRDEGSRCCSIIDPFGMPMLDLDDDDDREESLMMNRLANVRKCTDRQNSPVTSPGSSPLAQRRKPQPDPLQIPHLSLPPVPPRLDLIQKGIVRSPCGSPTGSPKSSPCMVRKQDKPLPAPPPPLRDPPPPPPERPPPIPPDNRLSRHIHHVESVPSRDPPMPLEAWCPRDVFGTNQLVGCRLLGEGSPKPGITASSNVNGRHSRVGSDPVLMRKHRRHDLPLEGAKVFSNGHLGSEEYDVPPRLSPPPPVTTLLPSIKCTGPLANSLSEKTRDPVEEDDDEYKIPSSHPVSLNSQPSHCHNVKPPVRSCDNGHCMLNGTHGPSSEKKSNIPDLSIYLKGDVFDSASDPVPLPPARPPTRDNPKHGSSLNRTPSDYDLLIPPLGEDAFDALPPSLPPPPPPARHSLIEHSKPPGSSSRPSSGQDLFLLPSDPFVDLASGQVPLPPARRLPGENVKTNRTSQDYDQLPSCSDGSQAPARPPKPRPRRTAPEIHHRKPHGPEAALENVDAKIAKLMGEGYAFEEVKRALEIAQNNVEVARSILREFAFPPPVSPRLNL

Variants of: B1
Details: with cd2ap_human CD2AP

Variant	effect of a mutation on the interaction
R904G	decreasing interaction

Variants of: B1
Details: with sh3k1_human SH3KBP1, Q96B97
sh3k1_human SH3KBP1, Q96B97, sequence (Q96B97 whole entry): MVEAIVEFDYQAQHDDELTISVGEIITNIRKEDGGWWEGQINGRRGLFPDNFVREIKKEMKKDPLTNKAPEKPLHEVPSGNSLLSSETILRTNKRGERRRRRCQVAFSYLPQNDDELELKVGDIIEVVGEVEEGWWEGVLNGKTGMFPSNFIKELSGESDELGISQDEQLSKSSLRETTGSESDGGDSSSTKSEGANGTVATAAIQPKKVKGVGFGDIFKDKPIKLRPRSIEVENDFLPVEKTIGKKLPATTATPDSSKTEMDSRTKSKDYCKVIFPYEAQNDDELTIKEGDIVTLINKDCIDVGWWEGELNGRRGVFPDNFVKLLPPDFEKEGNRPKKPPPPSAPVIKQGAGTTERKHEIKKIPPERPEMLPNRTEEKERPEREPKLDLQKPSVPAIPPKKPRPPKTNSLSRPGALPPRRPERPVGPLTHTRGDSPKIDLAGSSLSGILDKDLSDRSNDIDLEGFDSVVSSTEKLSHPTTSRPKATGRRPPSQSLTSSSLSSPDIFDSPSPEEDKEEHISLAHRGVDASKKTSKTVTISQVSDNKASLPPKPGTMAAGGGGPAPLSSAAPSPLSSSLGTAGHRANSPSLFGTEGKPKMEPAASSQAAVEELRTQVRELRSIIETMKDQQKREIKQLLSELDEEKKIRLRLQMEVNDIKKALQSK

Variant	effect of a mutation on the interaction
R904G	decreasing interaction

Variants of: B1
Details: with cd2ap_human CD2AP
Remark: another data set of the same source

Variant	effect of a mutation on the interaction
K907L	decreasing interaction

Variants of: B1
Details: with sh3k1_human SH3KBP1, Q96B97
Remark: another data set of the same source

Variant	effect of a mutation on the interaction
K907L	decreasing interaction

Variants of: B1
Details: with sh3k1_human SH3KBP1, Q96B97
Remark: another data set of the same source

Variant	effect of a mutation on the interaction
R911A	decreasing interaction

Variants of: B1
Details: with cd2ap_human CD2AP
Remark: another data set of the same source

Variant	effect of a mutation on the interaction
R911A	decreasing interaction
